Measured values reported in paper PMC5311937, “In Vitro Characterization and Concerted Function of Three Core Enzymes of a Glycyl Radical Enzyme - Associated Bacterial Microcompartment” (Scientific Reports, 2017).

Experiments:
[1] = molecular target: acylating aldehyde dehydrogenase (AldDH) from Rhodopseudomonas palustris BisB18, Strep-tagged (Rhodopseudomonas palustris BisB18); assay: SEC; gel filtration on HiLoad 16/600 Superdex 200 pg, 20 mM MOPS/KOH pH 7.5, 50 mM KCl
[2] = molecular target: acylating aldehyde dehydrogenase (AldDH) from Rhodopseudomonas palustris BisB18, Strep-tagged (Rhodopseudomonas palustris BisB18); assay: crystal structure; AldDH co-crystallised with propionyl-CoA at pH 4.8, space group P 1, 2.5 Å
[3] = molecular target: acylating aldehyde dehydrogenase (AldDH) from Rhodopseudomonas palustris BisB18, Strep-tagged (Rhodopseudomonas palustris BisB18); assay: crystal structure; AldDH co-crystallised with NAD+ at pH 4.8, space group P2_(1), 2.3 Å, twinned
[4] = molecular target: acylating aldehyde dehydrogenase (AldDH) from Rhodopseudomonas palustris BisB18, Strep-tagged (Rhodopseudomonas palustris BisB18); assay: crystal structure; AldDH co-crystallised with propionyl-CoA at pH 8.1, space group P 2_(1), 1.9 Å; CoA and S-propionylcysteine in the active sites
[5] = molecular target: T1, AldDH (acylating aldehyde dehydrogenase, PduP) (Rhodopseudomonas palustris, UniProt Q21A49); assay: X-ray crystal structure, […] Å; type: binding; settings: active site; propionyl-CoA or CoA fitted; pH 4.8; also in one site of 5JFN, where Cys330 is S-propionylated (covalent)
T1 construct: gene RPC_1174; N-terminal encapsulation peptide kept
T1 sequence (Q21A49 entry or part of it): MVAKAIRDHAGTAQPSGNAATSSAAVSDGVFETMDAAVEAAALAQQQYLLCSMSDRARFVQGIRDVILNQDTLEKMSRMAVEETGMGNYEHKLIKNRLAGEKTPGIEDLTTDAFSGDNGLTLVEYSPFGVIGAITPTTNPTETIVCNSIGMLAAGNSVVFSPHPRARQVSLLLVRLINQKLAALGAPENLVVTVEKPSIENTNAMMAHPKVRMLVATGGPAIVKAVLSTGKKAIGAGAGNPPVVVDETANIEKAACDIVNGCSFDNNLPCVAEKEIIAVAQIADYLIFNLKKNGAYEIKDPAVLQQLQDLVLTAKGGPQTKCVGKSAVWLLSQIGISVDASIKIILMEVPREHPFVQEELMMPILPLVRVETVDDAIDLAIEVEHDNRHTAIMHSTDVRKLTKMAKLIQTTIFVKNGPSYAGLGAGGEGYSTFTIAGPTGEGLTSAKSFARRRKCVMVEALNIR

[6] = molecular target: T1, AldDH (acylating aldehyde dehydrogenase, PduP); assay: NAD+ reduction monitored at […] nm; type: biochemical; settings: 5 mM NAD+, 0.5 mM CoA, 200 mM MOPS/KOH pH 7.5; kcat per tetrameric enzyme; read-out: apparent KM
[7] = molecular target: T1, AldDH (acylating aldehyde dehydrogenase, PduP); assay: X-ray crystal structure, […] Å; type: binding; settings: active site, acylated enzyme (Cys330 S-propionylated from propionyl-CoA); crystals at pH 8.1
[8] = molecular target: T1, AldDH (acylating aldehyde dehydrogenase, PduP); assay: X-ray crystal structure, […] Å; type: binding; settings: active site; pH 4.8, 5 mM NAD+

Q: With “acylating aldehyde dehydrogenase (AldDH) from Rhodopseudomonas palustris BisB18, Strep-tagged (enzyme)” as the molecule, how does the stoichiometry N [1] read?
A: The stoichiometry N was 4.

Q: And the stoichiometry N [2]?
A: The stoichiometry N was 4.

Q: What about the stoichiometry N [3] of the same molecule?
A: The stoichiometry N was 4.

Q: And the stoichiometry N [4]?
A: Its stoichiometry N is 4.

Q: `CCC(=O)SCCNC(=O)CCNC(=O)[C@H](O)C(C)(C)COP(=O)(O)OP(=O)(O)OC[C@H]1O[C@@H](n2cnc3c(N)ncnc32)[C@H](O)[C@@H]1OP(=O)(O)O` [propionyl-CoA] was tested. Which “X-ray crystal structure, 2.52 Å” value [5] did it give?
A: Its value is “we found electron density that allowed the fitting of either propionyl-CoA or CoA”.

Q: How did the Km [6] turn out when `CCC=O` [propionaldehyde] was run?
A: Its Km is 1200 ± 170 µM.

Q: With `CC(C)(COP(=O)(O)OP(=O)(O)OC[C@H]1O[C@@H](n2cnc3c(N)ncnc32)[C@H](O)[C@@H]1OP(=O)(O)O)[C@@H](O)C(=O)NCCC(=O)NCCS` [CoA] as the molecule, how does the “X-ray crystal structure, 1.90 Å” value [7] read?
A: Its value is “In three of the four active sites of the tetramer we also found coenzyme A bound”.

Q: How did the “X-ray crystal structure, 2.30 Å” value [8] turn out when `NC(=O)c1ccc[n+]([C@@H]2O[C@H](COP(=O)(O)OP(=O)(O)OC[C@H]3O[C@@H](n4cnc5c(N)ncnc54)[C@H](O)[C@@H]3O)[C@@H](O)[C@H]2O)c1` [NAD^+] was run?
A: The value was “Electron density in the active sites allowed the fitting of NAD^+”.
